Target: T1, SET domain of human SETD2 (residue 1435–1711, encompassing the AWS, SET, and post-SET regions) (human, UniProt Q9BYW2 1435-1711)
T1 construct: SETD2, human, residues 1435–1711 (AWS, SET and post-SET regions), in the pET28-MHL vector; The His-tag was not removed for crystallization; A longer construct (1347–1711, 6xHis, Talon beads) was used for the histone methyltransferase assays; also called SETD2 SET domain; recombinant SET domain of SETD2; not shown: His6, N-terminal, kept
T1 sequence (looked up): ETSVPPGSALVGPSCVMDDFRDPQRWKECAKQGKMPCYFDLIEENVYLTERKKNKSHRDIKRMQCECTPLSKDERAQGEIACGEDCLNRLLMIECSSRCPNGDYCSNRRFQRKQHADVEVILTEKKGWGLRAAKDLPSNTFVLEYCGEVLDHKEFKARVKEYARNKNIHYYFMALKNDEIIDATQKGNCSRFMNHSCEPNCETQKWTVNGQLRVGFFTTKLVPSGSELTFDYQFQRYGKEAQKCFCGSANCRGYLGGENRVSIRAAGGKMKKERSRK
Experiment: crystal structure; SETD2 (10 mg/ml) incubated with SAM and H3K36M peptide at a molar ratio of 1:10:10; sitting drop, 20 °C, 0.1 M KSCN, 24% PEG 2000 MME; two ternary complexes, with SAM (2.42 Å) and with SAH (2.4 Å)
Conditions: both partners purified

binding result: binds
B1: H3K36M peptide (29-APATGGVMKPHRYRP-43) (peptide)
peptide: APATGGVMKPHRYRP
notes: histone H3 tail, residues 29–43, with K36M; also called H3K36M (29–43) peptide; source: synthetic peptide (Eurogentec for the crystals; Anaspec for the thermal shift assay)

— publication PMC5335568, “Molecular basis for the role of oncogenic histone mutations in modulating H3K36 methylation” (Scientific Reports, 2017)
